Assay results published in PMC2756588.

How the values were obtained:
Assay in all cases: SPOT array
Abp1, P15891 = target: T1, Abp1, P15891; details: median of control spots 935
T1 sequence (P15891 535-592, looked up): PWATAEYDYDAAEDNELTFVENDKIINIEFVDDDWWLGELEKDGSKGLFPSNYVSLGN

Bbc1, P47068 = target: T2, Bbc1, P47068; details: median of control spots 796
T2 sequence (P47068 1-78, looked up): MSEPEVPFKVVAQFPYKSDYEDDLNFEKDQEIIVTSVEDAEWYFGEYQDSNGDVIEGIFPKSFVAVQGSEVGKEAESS

Bem1-1, P29366 = details: median of control spots 4282
Sequence of Bem1-1, P29366 (P29366 55-141): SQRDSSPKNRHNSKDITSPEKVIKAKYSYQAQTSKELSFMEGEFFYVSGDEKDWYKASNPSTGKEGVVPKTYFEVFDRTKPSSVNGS

Bem1-2, P29366 = details: median of control spots 4347
Sequence of Bem1-2, P29366 (P29366 139-227): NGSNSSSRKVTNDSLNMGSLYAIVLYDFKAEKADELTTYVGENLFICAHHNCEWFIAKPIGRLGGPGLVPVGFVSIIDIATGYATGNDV

Boi1, P38041 = target: T3, Boi1, P38041; details: median of control spots 1162
T3 sequence (P38041 1-86, looked up): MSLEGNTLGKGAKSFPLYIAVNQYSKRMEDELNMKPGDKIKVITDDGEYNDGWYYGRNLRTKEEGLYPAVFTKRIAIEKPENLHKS

Boi2, P39969 = target: T4, Boi2, P39969; details: median of control spots 1161
T4 sequence (P39969 32-116, looked up): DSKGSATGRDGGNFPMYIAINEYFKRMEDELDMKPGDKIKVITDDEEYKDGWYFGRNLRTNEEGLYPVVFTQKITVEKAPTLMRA

Bud14, P27637 = target: T5, Bud14, P27637; details: median of control spots 956
T5 sequence (P27637 247-328, looked up): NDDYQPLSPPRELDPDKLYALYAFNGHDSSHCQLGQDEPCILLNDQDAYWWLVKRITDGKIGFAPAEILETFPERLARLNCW

Bzz1-1, P38822 = target: T6, Bzz1-1, P38822; details: median of control spots 4446
T6 sequence (P38822 478-572, looked up): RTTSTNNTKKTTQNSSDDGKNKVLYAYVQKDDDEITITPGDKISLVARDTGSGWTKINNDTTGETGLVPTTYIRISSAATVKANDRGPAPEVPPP

Bzz1-2, P38822 = target: T7, Bzz1-2, P38822; details: median of control spots 4538
T7 sequence (P38822 568-633, looked up): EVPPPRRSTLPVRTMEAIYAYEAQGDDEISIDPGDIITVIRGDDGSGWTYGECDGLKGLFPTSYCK

Cdc25, P04821 = target: T8, Cdc25, P04821; details: median of control spots 969
T8 sequence (P04821 50-136, looked up): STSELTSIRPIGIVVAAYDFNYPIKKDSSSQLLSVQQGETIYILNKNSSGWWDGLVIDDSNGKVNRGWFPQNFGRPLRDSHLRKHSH

Cyk3, Q07533 = target: T9, Cyk3, Q07533; details: median of control spots 1451
T9 sequence (Q07533 1-83, looked up): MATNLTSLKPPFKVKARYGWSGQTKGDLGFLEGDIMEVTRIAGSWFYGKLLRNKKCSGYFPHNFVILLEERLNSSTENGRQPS

Fus1, P11710 = target: T10, Fus1, P11710; details: median of control spots 1200
T10 sequence (P11710 432-512, looked up): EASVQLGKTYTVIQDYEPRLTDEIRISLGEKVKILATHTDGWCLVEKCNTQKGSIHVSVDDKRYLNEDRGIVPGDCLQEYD

GST = details: median of control spots 978
Hof1, Q05080 = target: T11, Hof1, Q05080; details: median of control spots 4086
T11 sequence (Q05080 590-669, looked up): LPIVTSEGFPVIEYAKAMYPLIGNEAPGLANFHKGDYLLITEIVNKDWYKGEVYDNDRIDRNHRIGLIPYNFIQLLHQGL

Hse1, P38753 = target: T12, Hse1, P38753; details: median of control spots 1727
T12 sequence (P38753 208-285, looked up): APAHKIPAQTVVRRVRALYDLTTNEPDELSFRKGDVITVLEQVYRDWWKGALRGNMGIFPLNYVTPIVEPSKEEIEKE

Lsb1, P53281 = target: T13, Lsb1, P53281; details: median of control spots 388
T13 sequence (P53281 45-122, looked up): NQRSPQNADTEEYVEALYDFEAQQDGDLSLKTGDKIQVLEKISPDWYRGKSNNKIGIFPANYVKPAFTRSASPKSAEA

Lsb3, P43603 = target: T14, Lsb3, P43603; details: median of control spots 406
T14 sequence (P43603 385-451, looked up): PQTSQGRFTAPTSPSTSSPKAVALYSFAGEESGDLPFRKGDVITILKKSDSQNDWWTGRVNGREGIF

Lsb4, P32793 = target: T15, Lsb4, P32793; details: median of control spots 397
T15 sequence (P32793 402-468, looked up): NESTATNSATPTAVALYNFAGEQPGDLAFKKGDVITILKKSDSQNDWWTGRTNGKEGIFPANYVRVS

Myo3, P36006 = details: median of control spots 468
Myo5, Q04439 = target: T16, Myo5, Q04439; details: median of control spots 471
T16 sequence (Q04439 1072-1160, looked up): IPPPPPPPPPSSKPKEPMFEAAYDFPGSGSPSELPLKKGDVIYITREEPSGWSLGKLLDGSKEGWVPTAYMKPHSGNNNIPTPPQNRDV

Nbp2, Q12163 = target: T17, Nbp2, Q12163; details: median of control spots 357
T17 sequence (Q12163 103-180, looked up): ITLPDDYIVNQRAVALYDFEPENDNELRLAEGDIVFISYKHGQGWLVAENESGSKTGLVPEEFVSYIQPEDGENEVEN

Pex13, P80667 = target: T18, Pex13, P80667; details: median of control spots 1341
T18 sequence (P80667 295-386, looked up): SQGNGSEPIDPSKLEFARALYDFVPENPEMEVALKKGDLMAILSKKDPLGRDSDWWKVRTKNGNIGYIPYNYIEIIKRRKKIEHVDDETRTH

Pin3, Q06449 = target: T19, Pin3, Q06449; details: median of control spots 2171
T19 sequence (Q06449 53-122, looked up): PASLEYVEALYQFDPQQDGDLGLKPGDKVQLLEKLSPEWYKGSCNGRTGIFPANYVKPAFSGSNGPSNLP

Rvs167, P39743 = details: median of control spots 2707
Sequence of Rvs167, P39743 (P39743 419-482): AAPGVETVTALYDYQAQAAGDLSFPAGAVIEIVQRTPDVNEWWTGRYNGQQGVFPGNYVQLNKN

Sho1, P40073 = details: median of control spots 1148
Sequence of Sho1, P40073 (P40073 287-367): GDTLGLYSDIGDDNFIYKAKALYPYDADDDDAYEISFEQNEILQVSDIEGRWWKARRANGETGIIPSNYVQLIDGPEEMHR

Sla1-2, P32790 = target: T20, Sla1-2, P32790; details: median of control spots 712
T20 sequence (P32790 60-140, looked up): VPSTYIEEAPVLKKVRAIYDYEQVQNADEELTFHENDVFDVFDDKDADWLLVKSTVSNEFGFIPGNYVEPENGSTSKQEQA

Sla1-3, P32790 = target: T21, Sla1-3, P32790; details: median of control spots 5475
T21 sequence (P32790 344-424, looked up): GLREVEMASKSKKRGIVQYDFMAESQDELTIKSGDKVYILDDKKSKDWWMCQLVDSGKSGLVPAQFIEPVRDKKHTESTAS

Row | Binder | SPOT intensity (Abp1, P15891) | SPOT intensity (Bbc1, P47068) | SPOT intensity (Bem1-1, P29366) | SPOT intensity (Bem1-2, P29366) | SPOT intensity (Boi1, P38041) | SPOT intensity (Boi2, P39969) | SPOT intensity (Bud14, P27637) | SPOT intensity (Bzz1-1, P38822) | SPOT intensity (Bzz1-2, P38822) | SPOT intensity (Cdc25, P04821) | SPOT intensity (Cyk3, Q07533) | SPOT intensity (Fus1, P11710) | SPOT intensity (GST) | SPOT intensity (Hof1, Q05080) | SPOT intensity (Hse1, P38753) | SPOT intensity (Lsb1, P53281) | SPOT intensity (Lsb3, P43603) | SPOT intensity (Lsb4, P32793) | SPOT intensity (Myo3, P36006) | SPOT intensity (Myo5, Q04439) | other results
1 | NLKKRPPTAPQRKIS | 564 | 31 | 0 | 51 | 15 | 0 | 25 | 22 | 324 | 203 | 2 | 8 | 2 | 28 | 157 | 8 | 45 | 141 | 20 | 3 | SPOT intensity (Nbp2, Q12163): 48; SPOT intensity (Pex13, P80667): 13; SPOT intensity (Pin3, Q06449): 7; SPOT intensity (Rvs167, P39743): 18; SPOT intensity (Sho1, P40073): 229; SPOT intensity (Sla1-2, P32790): 3; SPOT intensity (Sla1-3, P32790): 161
2 | KTKQQKPAIPQKKSF | 617 | 1 | 0 | 5 | 0 | 0 | 0 | 0 | 9 | 3 | 0 | 0 | 1 | 0 | 6 | 0 | 4 | 2 | 2 | 1 | SPOT intensity (Nbp2, Q12163): 0; SPOT intensity (Pex13, P80667): 5; SPOT intensity (Pin3, Q06449): 3; SPOT intensity (Rvs167, P39743): 4; SPOT intensity (Sho1, P40073): 38; SPOT intensity (Sla1-2, P32790): 0; SPOT intensity (Sla1-3, P32790): 0
3 | MTKTPETSPPKRPMG | 75 | 0 | 0 | 3 | 0 | 0 | 0 | 3 | 4 | 2 | 0 | 0 | 0 | 16 | 0 | 3 | 34 | 36 | 455 | 499 | SPOT intensity (Nbp2, Q12163): 0; SPOT intensity (Pex13, P80667): 8; SPOT intensity (Pin3, Q06449): 24; SPOT intensity (Rvs167, P39743): 0; SPOT intensity (Sho1, P40073): 5; SPOT intensity (Sla1-2, P32790): 2; SPOT intensity (Sla1-3, P32790): 0
4 | QTREPNEPPPPSPAM | 7 | 0 | 1 | 0 | 0 | 3 | 0 | 0 | 0 | 0 | 1 | 0 | 0 | 0 | 0 | 0 | 2 | 13 | 502 | 515 | SPOT intensity (Nbp2, Q12163): 0; SPOT intensity (Pex13, P80667): 7; SPOT intensity (Pin3, Q06449): 21; SPOT intensity (Rvs167, P39743): 4; SPOT intensity (Sho1, P40073): 0; SPOT intensity (Sla1-2, P32790): 0; SPOT intensity (Sla1-3, P32790): 0
5 | KKEKKPPKIPKKVYT | 161 | 0 | 1 | 4 | 0 | 3 | 0 | 0 | 18 | 3 | 1 | 3 | 3 | 4 | 12 | 0 | 0 | 0 | 0 | 0 | SPOT intensity (Nbp2, Q12163): 0; SPOT intensity (Pex13, P80667): 0; SPOT intensity (Pin3, Q06449): 1; SPOT intensity (Rvs167, P39743): 0; SPOT intensity (Sho1, P40073): 16; SPOT intensity (Sla1-2, P32790): 0; SPOT intensity (Sla1-3, P32790): 12
6 | AAHKTKPSIPPKKVE | 239 | 0 | 0 | 0 | 0 | 1 | 0 | 0 | 0 | 0 | 0 | 1 | 0 | 0 | 0 | 0 | 0 | 0 | 0 | 0 | SPOT intensity (Nbp2, Q12163): 0; SPOT intensity (Pex13, P80667): 2; SPOT intensity (Pin3, Q06449): 0; SPOT intensity (Rvs167, P39743): 0; SPOT intensity (Sho1, P40073): 4; SPOT intensity (Sla1-2, P32790): 0; SPOT intensity (Sla1-3, P32790): 0
